Test results: patent US20080015165A1, “NOVEL POLYPEPTIDE” (KYOWA HAKKO KOGYO CO., LTD., priority 1998, published 2008)

How the values were obtained:
[1] = Enzyme activity for a poly-N-acetyllactosamine sugar chain, Namalwa cell extract, HPLC; type: biochemical
Text: Using a poly-N-acetyllactosamine sugar chain, it was examined that to which GlcNAc in the sugar chains, human Fuc-TIX and 5 types of human α1,3-fucosyltransferase (Fuc-TIII, Fuc-TIV, Fuc-TV, Fuc-TVI, and Fuc-TVII) that had been cloned so far transferred fucose.
Control plasmid (pAMo) and the human Fuc-TIX expression plasmid pAMo-FT9 were introduced into Namalwa cells according to the method shown in Example 1 (3), thereby obtaining stable transformants.
Namalwa cells expressing each of the other 5 types of human α1,3-fucosyltransferases (Fuc-TIII, Fuc-TIV, Fuc-TV, Fuc-TVI, and Fuc-TVII) were obtained according to the previous report (Glycoconjugate J., 13, 802-812, Biochem. Biophys. Res. Commun., 237, 131-137, 1997).
The resultant transformants (about 1×10^7) were collected in microtubes (1.5 ml, manufactured by Eppendolf), followed by centrifugation at 550×g for 7 minutes to collect the cells.
The collected cells were washed with 0.9 ml of PBS. The washed cells were suspended in 100 μl of a solution which consisted of 20 mM HEPES (pH 7.2) and 1% TrironX-100, then allowed to stand at 4° C. for 10 minutes. Subsequently the cells were disrupted using a ultrasonicator (Bioruptor; manufactured by COSMO BIO CO., LTD.)
After disruption of the cells, each supernatant was obtained by centrifugation at 550×g for 7 minutes and used as an enzyme sample. A poly-N-acetyllactosamine sugar chain (Galβ1-4GlcNAcβ1-3Galβ1-4GlcNAcβ1-3Galβ1-4GlcNAc) consisting of 6 sugars was fluorescently labeled with 2-aminobenzamide to make a sugar chain (Galβ1-4GlcNAcβ1-3Galβ1-4GlcNAcβ1-3Galβ1-4GlcNAc-2AB: abbreviated as S in FIGS. 13 and 15, and table 3), which was used as a substrate
Florescent labeling was performed using a Signal™ 2-AB glycan labeling kit (manufactured by Oxford GlycoScience). A poly-N-acetyllactosamine sugar chain (Galβ1-4GlcNAcβ1-3Galβ1-4GlcNAcβ1-3Galβ1-4GlcNAc) was prepared according to WO98/03524.
Samples were allowed to react in 20 μl of an assay solution [50 mM cacodylate (pH 6.8), 5 mM ATP, 10 mM L-fucose, 75 μM […] (manufactured by SIGMA), 25 mM MnCl2, 15 μM fluorescently labeled sugar chain substrate, 6 μl of the cell lysate above] at 37° C. for 2 hours, followed by treatment at 100° C. for 3 minutes to stop the reaction. Next 200 μl of water was added to the samples, and the supernatant was obtained by centrifugation at 10,000×g for 5 minutes. Using an aliquot of the supernatant (10 μl), products were analyzed by HPLC under the following conditions.
HPLC: • Column—TSK-gel ODS-80TsQA column (4.6×250 mm; TOSOH CORPORATION) • Eluate—0.02 M ammonium acetate (pH 4.0) containing 7% methanol • Elution temperature—50° C. • Flow rate—1.0 ml/min. • Detection—Fluorescence spectrum photometer FB-920 (manufactured by JASCO Corporation) (excitation wavelength: 330 nm, radiation wavelength: 420 nm)

[2] = test system: Namalwa KJM-1 cells; test: Indirect fluorescent antibody staining (FACS) of transformed Namalwa KJM-1 cells; type: cell-based, human; conditions: antibodies CSLEX-1, KM93; FIG. 2 (also Namalwa cells, FIG. 1)
Text: Similarly, Namalwa KJM-1 cells, into which a control plasmid (pAMo), a mouse Fuc-TIX expression plasmid (pAMo-mFT9), a human Fuc-TIV expression plasmid (pAMo-FT4), or a human Fuc-TVII expression plasmid (pAMo-FT7) had been introduced, were obtained. The cells were subjected to indirect fluorescent antibody staining using the anti-Lewis x sugar chain antibody (KM380) and an anti-sialyl Lewis x sugar chain antibodies (CSLEX-1 or KM93) (see FIG. 2).

[3] = test system: COS-1 cells; test: Indirect fluorescent antibody staining (FACS) of transformed COS-1 cells; type: cell-based, African green monkey; conditions: antibody 7LE; FIG. 3
Procedure: Further, COS-1 cells, into which a control plasmid (pCDM8), a mouse Fuc-TIX expression plasmid (pCDM8-mFT9), or a human Fuc-TIII expression plasmid (pCDM8-Le) had been introduced, were prepared. The cells were subjected to indirect fluorescent antibody staining using the anti-Lewis a sugar chain antibody (7LE, manufactured by […] CORPORATION) (see FIG. 3).
Each α1,3-fucosyltransferase expression plasmid (15 μg) was introduced into 1×10^7 COS-1 cells.
This introduction was performed by electroporation method using a gene pulser (manufactured by Bio-Rad) according to the Bio-Rad's instructional manual attached thereto. At this time, 1 μg of a luciferase expression vector, which was constructed by inserting β-actin promoter into a Hind III site of a vector pSVOA/L [Experimental Medicine, 7, 96, (1989)] was co-introduced as an index of gene transfer efficiency.

[4] = test system: Namalwa cells; test: Indirect fluorescent antibody staining of Namalwa cells expressing human Fuc-TIV or Fuc-TIX (VIM-2 and Le^x sugar chains); type: cell-based
Procedure: Using an anti-VIM-2 sugar chain antibody (anti-CDw65 antibody, manufactured by Serotec) and anti-Le^x sugar chain antibodies [73-30 (manufactured by […] CORPORATION) and anti-CD15 antibody (C3D-1, manufactured by Dako)], indirect fluorescent antibody staining was performed for Namalwa cells expressing human Fuc-TIV or human Fuc-TIX, and for Namalwa cells transfected with the control vector pAMo, which were constructed in Example 9. The VIM-2 sugar chain is a sugar chain having the structure consisting of Galβ1-4GlcNAcβ1-3Galβ1-4(Fucα1-3)GlcNAc on non-reduced terminal of a sugar chain.
Indirect fluorescent antibody staining was performed according to the method described in Example 1 (3). Anti-VIM-2 sugar chain antibodies, 73-30 and C3D-1 were used after dilution at 1:50, 1:100, and 1:50.

[5] = relative activity with the activity for P1 assumed to be 1
[6] = substrate S, relative value, total of products P1, P2 and P3 by each enzyme = 100%

B1: Fuc-TIX: human Fuc-TIX, 359 amino acids (SEQ ID NO:2), α1,3-fucosyltransferase expressed from pAMo-FT9 in Namalwa cells (protein)
chain: MTSTSKGILRPFLIVCIILGCFMACLLIYIKPTNSWIFSPMESASSVLKMKNFFSTKTDYFNETTILVWVWPFGQTFDLTSCQAMFNIQGCHLTTDRSLYNKSHAVLIHHRDISWDLTNLPQQARPPFQKWIWMNLESPTHTPQKSGIEHLFNLTLTYRRDSDIQVPYGFLTVSTNPFVFEVPSKEKLVCWVVSNWNPEHARVKYYNELSKSIEIHTYGQAFGEYVNDKNLIPTISACKFYLSFENSIHKDYITEKLYNAFLAGSVPVVLGPSRENYENYIPADSFIHVEDYNSPSELAKYLKEVDKNNKLYLSYFNWRKDFTVNLPRFWESHACLACDHVKRHQEYKSVGNLEKWFWN
modifications: human
Enzymatic activity, substrate S, product P1 [1, 5]: 7.2 | Enzymatic activity, substrate S, product P2 [1, 5]: 1.6 | Enzymatic activity, substrate S, product P3 [1, 5]: 0.7 | Production (%) P1 [1, 6]: 82.7% | Production (%) P2 [1, 6]: 13.4% | Production (%) P3 [1, 6]: 3.9% | synthesis of the sialyl Lewis x sugar chain in transformed cells [2]: cannot synthesize | synthesis of the Lewis a sugar chain in transformed cells [3]: cannot synthesize | reactivity against the anti-Le^x sugar chain antibodies [73-30 and anti-CD15 antibody] ([4]; Namalwa cells expressing Fuc-TIX compared with those expressing Fuc-TIV): greater | reactivity against the anti-VIM-2 sugar chain antibody ([4]; compared to Namalwa cells transfected with pAMo): slight increase
